Measurements as given in PMC4882005, “Functional Cooperativity between ABCG4 and ABCG1 Isoforms” (PLoS ONE, 2016).

Target: GFP-ABCG4 (UniProt Q9H172-1 1-646)
Assay: co-IP; HEK293 co-transfected with the GFP-tagged and the untagged protein (untagged in excess), lysed 24 h after transfection in 50 mM Tris pH 7.4, 150 mM NaCl, 0.5% NP-40; precipitated with anti-GFP on protein G-sepharose, 2 h at 4°C; Western blot of the precipitate
Settings: partners not purified

Sequence of GFP-ABCG4 (Q9H172 whole entry): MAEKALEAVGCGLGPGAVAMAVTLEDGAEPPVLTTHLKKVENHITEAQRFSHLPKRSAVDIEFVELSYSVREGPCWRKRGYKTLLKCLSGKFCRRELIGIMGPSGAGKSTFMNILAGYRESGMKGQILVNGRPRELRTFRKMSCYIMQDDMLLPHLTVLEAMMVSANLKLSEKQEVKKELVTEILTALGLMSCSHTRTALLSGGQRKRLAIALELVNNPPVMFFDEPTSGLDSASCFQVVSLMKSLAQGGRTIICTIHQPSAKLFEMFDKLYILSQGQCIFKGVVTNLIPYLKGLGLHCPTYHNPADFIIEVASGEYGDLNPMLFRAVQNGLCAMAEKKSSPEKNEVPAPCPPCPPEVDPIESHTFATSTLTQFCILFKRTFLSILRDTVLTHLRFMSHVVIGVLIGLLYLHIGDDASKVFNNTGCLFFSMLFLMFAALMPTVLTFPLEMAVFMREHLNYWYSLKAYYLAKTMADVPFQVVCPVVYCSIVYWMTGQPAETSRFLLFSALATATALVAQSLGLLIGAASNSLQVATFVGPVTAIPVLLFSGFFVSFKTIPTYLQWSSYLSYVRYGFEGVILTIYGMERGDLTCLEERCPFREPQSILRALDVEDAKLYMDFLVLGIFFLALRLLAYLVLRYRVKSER

stoichiometry N: ~1
B1: ABCG4 (wild type, untagged) (natural protein)
chain: not shown
notes: the whole cDNA was probably expressed; also called wt ABCG4; source: HEK293, transfected (Fugene HD), in lysate
